According to patent US20240158448A1 (University of Pennsylvania, published 2024):
Positions of bridges follow the written chain, without caps; N, C: chain ends. No end group written: not given here.

T1: mouse SIRPα expressed on J774A.1 macrophages (mouse, UniProt P97797 32-513)
T1 sequence (looked up): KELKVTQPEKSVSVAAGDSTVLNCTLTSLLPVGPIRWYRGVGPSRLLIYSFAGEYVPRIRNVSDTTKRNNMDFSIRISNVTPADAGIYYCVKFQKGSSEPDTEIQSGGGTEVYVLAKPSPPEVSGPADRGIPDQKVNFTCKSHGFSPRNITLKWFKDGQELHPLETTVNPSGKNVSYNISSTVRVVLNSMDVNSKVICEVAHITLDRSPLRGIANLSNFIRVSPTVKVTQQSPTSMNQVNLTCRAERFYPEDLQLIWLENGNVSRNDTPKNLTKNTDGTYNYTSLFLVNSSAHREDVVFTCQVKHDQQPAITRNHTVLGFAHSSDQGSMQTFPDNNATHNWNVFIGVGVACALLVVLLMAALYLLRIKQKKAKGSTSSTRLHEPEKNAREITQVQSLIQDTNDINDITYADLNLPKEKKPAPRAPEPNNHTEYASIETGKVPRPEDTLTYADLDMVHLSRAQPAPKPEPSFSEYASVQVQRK

T2: mouse SIRPα expressed on primary bone marrow derived macrophages (C57BL6/J) (mouse, UniProt P97797 32-513)
T2 sequence (looked up): T1 sequence (looked up)

B1: nS-FF, (VTELFREG-PEG5)2-K (peptide)
peptide: VTELFREG
chain: K
modifications: not fully specified; core Lys carrying one PEG5-peptide arm on each of its two amines; C-terminal amide; C-terminus joined through a PEG5 linker to one of the two amines of the core Lys
B2: nS-F (peptide)
peptide: VTELFREG-NH2
B3: nS-Cyc (cyclic nano-Self peptide) (peptide)
peptide: CVELTREGC-NH2
modifications: disulfide 1-9; not fully specified
B4: nS-wt (nano-Self wild-type peptide) (peptide)
peptide: VTELTREG-NH2
B5: nS-F-Cyc (peptide)
peptide: CVTELFREGC
HELM: PEPTIDE1{C.V.T.E.L.F.R.E.G.C.[am]}$PEPTIDE1,PEPTIDE1,1:R3-10:R3$$$V2.0; N-terminus assumed
SMILES: CC(C)C[C@@H]1NC(=O)[C@H](CCC(=O)O)NC(=O)[C@H]([C@@H](C)O)NC(=O)[C@H](C(C)C)NC(=O)[C@@H](N)CSSC[C@@H](C(N)=O)NC(=O)CNC(=O)[C@H](CCC(=O)O)NC(=O)[C@H](CCCNC(=N)N)NC(=O)[C@H](Cc2ccccc2)NC1=O

Tests used:
Assay in all cases: cell-based or functional assay
[1] = molecular target: human SIRPα expressed on cells (PMA-differentiated THP-1 macrophages; A549 cells) (human, UniProt P78324 31-504)
[2] = molecular target: T1, mouse SIRPα expressed on J774A.1 …
[3] = molecular target: T2, mouse SIRPα expressed on primary bone …

Binder	increase in THP-1 macrophage phagocytosis of opsonized RBCs relative to nS-wt [1]	maximum phagocytosis of opsonized RBCs by THP-1 macrophages [1]	maximum phagocytosis of opsonized B16 cells by mouse BMDMs [3]	further results
B1	–	–	–	activity relative to nS-wt in phagocytosis of opsonized RBCs [1]: > 100 fold; increase in phagocytic macrophages relative to anti-CD47 on opRBC [1]: ~10%
B2	~25%	~25%	~25%	phagocytosis of opsonized RBCs by J774A.1 macrophages, relative to nS-X [2]: 3 fold
B3	–	~25%	~25%	–
B4	–	–	–	fold decrease in effective activity in the mouse macrophage phagocytosis assay relative to the human assay [2]: ~100 fold
B5	~25%	~25%	~25%	–
